Laboratory results taken from publication PMC7084321, “Structural and Functional Characterization of New SsoPox Variant Points to the Dimer Interface as a Driver for the Increase in Promiscuous Paraoxonase Activity” (International Journal of Molecular Sciences, 2020).

Biological target: the molecule itself
Assay: crystal structure; sitting drop vapor diffusion at 19 °C; space group P212121, two dimers per asymmetric unit; 4Mut at 6.0 mg/mL in 20 mM HEPES-NaOH pH 8.5, 0.5 mM CoCl2, 200 mM NaCl

B1: SsoPox V82L/C258L/I261F/W263A (4Mut) (enzyme, Saccharolobus solfataricus, UniProt Q97VT7 1-314, looked up)
chain: MRIPLVGKDSIESKDIGFTLIHEHLRVFSEAVRQQWPHLYNEDEEFRNAVNEVKRAMQFGVKTIVDPTVMGLGRDIRFMEKLVKATGINLVAGTGIYIYIDLPFYFLNRSIDEIADLFIHDIKEGIQGTLNKAGFVKIAADEPGITKDVEKVIRAAAIANKETKVPIITHSNAHNNTGLEQQRILTEEGVDPGKILIGHLGDTDNIDYIKKIADKGSFIGLDRYGLDLFLPVDKRNETTLRLIKDGYSDKIMISHDYLCTFDAGTAKPEYKPKLAPRWSITLIFEDTIPFLKRNGVNEEVIATIFKENPKKFFS
notes: SsoPox, phosphotriesterase-like lactonase from Saccharolobus solfataricus, with four substitutions; primers run from the start codon (NdeI site) to behind the stop codon (HindIII site); Two cobalt atoms per protein by ICP-MS; also called SsoPox 4Mut; SsoPox-4Mut; source: E. coli BL21(DE3), pT7-7-4Mut, purified (thermoprecipitation, Q-Sepharose, Superdex 75, MonoQ)
binding result: binds
